Measurements from US20040192609A1.

What was measured:
[1] = molecular target: envelope glycoprotein of the R5-isolate ADA on pseudotyped HIV-1 (HIV-1); experiment: cell-based or functional assay
[2] = molecular target: gp120 of the HIV-1 isolate ADA (HIV-1); experiment: scFv precipitated with Protein L-Sepharose, radiolabeled ADA gp120 with and without soluble CD4, densitometry

Substance | EC50 of neutralization of ADA virus [1] [µg/mL] | enhancement of binding to gp120 by soluble CD4 [2] [fold] | other results
antibody E51 | < 0.05 | – | –
17b scFv | – | > 2 | –
antibody 412d | 0.2 to 0.5 | – | –
47e scFv (wt) | – | > 2 | –
antibody 17b | > 2 | – | –
CD4 binding site antibody F105 | 0.2 to 0.5 | – | –
E51 scFv | – | – | increase of binding to gp120 in the presence of CD4 [2]: 40%
412d scFv (wt) | – | > 2 | –
